# From patent publication US20070270486
# T1: Myocilin tagged at its C-terminus with S-peptide, Q99972
# T1 chain: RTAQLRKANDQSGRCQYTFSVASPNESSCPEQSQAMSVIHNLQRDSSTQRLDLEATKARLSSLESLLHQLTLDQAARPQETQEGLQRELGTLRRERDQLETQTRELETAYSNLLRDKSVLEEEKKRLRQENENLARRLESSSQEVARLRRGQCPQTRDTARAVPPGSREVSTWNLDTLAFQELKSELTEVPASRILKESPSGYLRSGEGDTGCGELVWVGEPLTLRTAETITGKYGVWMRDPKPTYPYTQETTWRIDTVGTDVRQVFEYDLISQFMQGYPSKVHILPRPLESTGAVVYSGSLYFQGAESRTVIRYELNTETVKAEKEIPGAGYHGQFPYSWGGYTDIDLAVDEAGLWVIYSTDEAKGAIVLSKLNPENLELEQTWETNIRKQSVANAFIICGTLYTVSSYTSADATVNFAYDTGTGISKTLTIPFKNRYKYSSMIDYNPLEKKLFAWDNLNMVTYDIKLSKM
# B1: S-protein (protein)
# chain: SSSNYCNQMMKSRNLTKDRCKPVNTFVHESLADVQAVCSQKNVACKNGQTNCYQSYSTMSITDCRETGSSKYPNCAYKTTQANKHIIVACEGNPYVPVHFDASV
# Target: T1, Myocilin tagged at its C-terminus with …
protein,measurement,value
B1,RNAase analysis of culture medium (enzymatic recombination assay),the assay can detect secreted myocilin in less than 1 µl of media
